Test results: patent US10501734B2, “Compositions and methods of use thereof for making polypeptides with many instances of nonstandard amino acids” (Yale University, priority 2014, dated 2019)
Where a chain is given by its changes, count along the chain named. Names may count otherwise.

B1: pAcFRS.2.t1: pAcFRS variant L65V, A167D, R257G, SEQ ID NO: 8 (protein)
chain: MDEFEMIKRNTSEIISEEELREVLKKDEKSALIGFEPSGKIHLGHYLQIKKMIDLQNAGFDIIIVLADLHAYLNQKGELDEIRKIGDYNKKVFEAMGLKAKYVYGSEFQLDKDYTLNVYRLALKTTLKRARRSMELIAREDENPKVAEVIYPIMQVNGCHYRGVDVDVGGMEQRKIHMLARELLPKKVVCIHNPVLTGLDGEGKMSSSKGNFIAVDDSPEEIRAKIKKAYCPAGVVEGNPIMEIAKYFLEYPLTIKGPEKFGGDLTVNSYEELESLFKNKELHPMRLKNAVAEELIKILEPIRKRL
B2: pAcFRS: progenitor M. jannaschii based p-acetyl-L-phenylalanine AARS, SEQ ID NO:1 (Young, et al., 2010) (protein, listed as Methanocaldococcus jannaschii)
chain: B1 chain with V65L, D167A, G257R
B3: pAcFRS.1.t1: pAcFRS variant A167D, R257G, SEQ ID NO: 5 (protein)
chain: B1 chain with V65L
B4: pAzFRS.1.t1: pAcFRS variant D158V, I159M, L162D, A167Y, R257G, SEQ ID NO: 11 (protein)
chain: MDEFEMIKRNTSEIISEEELREVLKKDEKSALIGFEPSGKIHLGHYLQIKKMIDLQNAGFDIIILLADLHAYLNQKGELDEIRKIGDYNKKVFEAMGLKAKYVYGSEFQLDKDYTLNVYRLALKTTLKRARRSMELIAREDENPKVAEVIYPIMQVNVMHYDGVDVYVGGMEQRKIHMLARELLPKKVVCIHNPVLTGLDGEGKMSSSKGNFIAVDDSPEEIRAKIKKAYCPAGVVEGNPIMMEIAKYFLEYPLTIKGPEKFGGDLTVNSYEELESLFKNKELHPMRLKNAVAEELIKILEPIRKRL
B5: pAzFRS.2.t1: pAcFRS variant E107T, F108Y, Q109M, R257G, SEQ ID NO: 14 (protein)
chain: B1 chain with V65L, E107T, F108Y, Q109M, D167A

test system: GFP(3TAG); assay: not given; format: cell-based, E. coli; details: GFP(3TAG) expression; chromosomally integrated AARS
Description: Liquid cell cultures of strains harboring chromosomally integrated OTSs and GFP reporter plasmids were inoculated from frozen stocks and grown to confluence overnight. Cultures were then inoculated at 1:20 dilution in LBmin media supplemented with 30 μg/ml kanamycin. Strains were inoculated by addition of 1:20 confluent cell culture (grown overnight) and allowed to grow at 34° C. to an OD600 of 0.5-0.8 in a shaking plate incubator at 650 r.p.m (˜3 h). AARS expression was then induced by the addition of 0.2% arabinose, GFP expression was induced by the addition of 60 ng/ul anhydrotetracycline, and the appropriate nsAA was added to a concentration of 1 mM. Cells were incubated at 34° C. for an additional 16 h. Liquid cell cultures of strains harboring plasmid-based OTSs and GFP or ELP-GFP reporter plasmids were inoculated from frozen stocks and grown to confluence overnight. Cultures were then inoculated at 1:20 dilution in 2×YT media supplemented with 30 μg/ml kanamycin and 20 μg/ml chloramphenicol. […] Cells were allowed to grow at 34° C. to an OD600 of 0.5-0.8 in a shaking plate incubator at 650 r.p.m (˜3 h), reporter protein expression was then induced by the addition of 60 ng/ul anhydrotetracycline, and cells were incubated at 34° C. for an additional 16 h.
For 384 well plate-based assays, fluorescence and OD600 were directly measured following expression. For 96 well plate-based assays, cells were centrifuged at 4,000 g for 4 min. Supernatant medium was removed and cells were resuspended in PBS. This process was repeated twice with PBS. GFP fluorescence was measured on a Biotek spectrophotometric plate reader using excitation and emission wavelengths of 395 and 509 nm, respectively). Fluorescence signals were normalized by dividing the fluorescence counts by the OD600 reading. The nsAAs used in this study were purchased from Sigma-Aldrich (St. Louis, Mo.), Chemlmpex (Wood Dale, Ill.), and Bachem (Torrance, Calif.). Solutions of nsAAs (50 mM) were made in water or 50 mM NaOH; these stock solutions were diluted 50- or 100-fold (to 1 mM final concentration) into medium used for bacterial growth.

Molecule	selectivity toward pAcF over pAzF
B1	increase in selectivity

same assay, conditions: RF1 deficient GRO; chromosomal versus plasmid OTS

Molecule	decrease in the yield of GFP(3TAG) by genomic integration of the OTS [fold]
B2	~20

same assay, conditions: chromosomally integrated AARS; pAcF

Molecule	higher GFP(3TAG) production compared with the progenitor enzyme [fold]
B3	~17

same assay, conditions: chromosomally integrated AARS; pAzF

Molecule	higher GFP(3TAG) production compared with the progenitor enzyme [fold]
B4	~5.5
B5	~25

test system: not listed separately; assay: ATP-PPi exchange assay (amino acid activation); format: biochemical; details: in vitro biochemical analysis
Description: A 25 μl ATP-PPi exchange reaction contained the following components: 100 mM HEPES-KOH (pH 7.5), 30 mM KCl, 10 mM MgCl2, 2 mM DTT, 2 mM KF, 2 mM NaPPi, 5 mM ATP, […], 2 μCi/μl of […] (PerkinElmer) and varied concentrations of amino acids (0.25, 0.5, 1.25, 2.5, 5, 10, and 20 mM, respectively). The reactions were incubated at 37° C. Time points were taken at 2 minutes, 5 minutes and 10 minutes by plotting 1 μl aliquots from the reaction immediately to the PEI-cellulose plates (Merck). For each reaction, 1 μl of blank reaction mixture containing no enzymes was set as background. The reaction mixtures were separated on the plates in 1 M urea and 1 M monopotassium phosphate. The plates were then scanned in a Molecular Dynamics Storm 860 phosphorimager (Amersham Biosciences). The ratio of ATP to PPi was determined to monitor reaction progress. The kinetic constants were derived from plotting initial velocity of a series of reactions that contained varied concentrations of amino acids. The data were analyzed by GraFit 5.0 (Erithacus Software).

Molecule	decrease in aminoacylation for pAzF compared with pAcF [fold]
B1	5

same assay, conditions: nsAA pAcF

Molecule	Km [µM]	kcat
B3	1680 ± 780	6.12 ± 0.74 ×10^−2 s^−1
B1	2810 ± 890	5.43 ± 0.54 ×10^−2 s^−1
B2	7340 ± 1620	5.01 ± 0.48 ×10^−2 s^−1

same assay, conditions: nsAA pAcF; relative to progenitor pAcFRS

Molecule	Fold change
B3	5.34
B1	2.84
B2	1

same assay, conditions: nsAA pAzF

Molecule	Km [µM]	kcat
B3	1490 ± 110	3.65 ± 0.62 ×10^−2 s^−1
B1	6590 ± 1700	4.22 ± 0.45 ×10^−2 s^−1
B4	990 ± 130	4.79 ± 0.67 ×10^−2 s^−1
B5	1400 ± 350	4.14 ± 0.23 ×10^−2 s^−1
B2	3040 ± 270	4.45 ± 0.13 ×10^−2 s^−1

same assay, conditions: nsAA pAzF; relative to progenitor pAcFRS

Molecule	Fold change
B3	1.68
B1	0.44
B4	3.32
B5	2.02
B2	1

test system: tRNA; assay: Aminoacylation assay (tRNA charging); format: biochemical; details: in vitro biochemical analysis
Description: Template plasmid containing tRNA gene was purified with the plasmid maxi kit (Qiagen), and 100 μg of plasmid was digested with BstNI (New England Biolabs). The BstNI digested template DNA was purified by phenol chloroform extraction, followed by ethanol precipitation and resolved in double distilled water. A His-tagged T7 RNA polymerase was purified over column of Ni-NTA resin according to manufacturer's instructions (Qiagen). The transcription reaction [40 mM Tris (pH 8); 4 mM each of UTP, CTP, GTP, and ATP at pH 7.0; 22 mM MgCl2; 2 mM spermidine; 10 mM DTT; 6 μg pyrophosphatase (Roche Applied Science); 60 μg/mL BstNI digested DNA template, approximately 0.2 mg/ml T7 RNA polymerase] was performed in 10 ml reaction volumes for overnight at 37° C. The tRNA was purified on 12% denaturing polyacrylamide gel containing 8 M urea and TBE buffer (90 mM Tris, 90 mM boric acid, 2 mM EDTA). UV shadowing illuminates the pure tRNA band, which is excised and extracted three times with 1M sodium acetate pH 5.3 at 4° C. The tRNA extractions were then ethanol precipitated, dissolved in RNase-free distilled water, pooled, and finally desalted using a Biospin 30 column (BioRad). The ratio of aminoacylated tRNA to total tRNA was determined to monitor reaction progress.
The tRNA was refolded by heating to 100° C. for 5 min and slow cooling to room temperature. At 65° C., MgC12, was added to a final concentration of 10 mM to aid folding. A His-tagged CCA adding enzyme was purified over column of Ni-NTA resin according to manufacturer's instructions (Qiagen). 16 μM folded tRNA in 50 mM Tris (pH 8.0), 20 mM MgCl2, 5 mM DTT and 50 μM NaPPi was incubated at room temperature for 1 hour with approximately 0.2 mg/ml CCA-adding enzyme and 1.6 μCi/μl of [α-32P]-labeled ATP (PerkinElmer). The sample was phenol/chloroform extracted and then passed over a Bio-spin 30 column (Bio-Rad) to remove excess ATP.
A 20 μl aminoacylation reaction contained the following components: 50 mM HEPES-KOH (pH 7.2), 25 mM KCl, 10 mM MgCl2, 5 mM DTT, 10 mM ATP, 25 μg/ml pyrophosphatase (Roche Applied Science), 2 mM amino acids. All plateau tRNA aminoacylation levels were determined at 37° C. according to the reactions conditions described above with 500 nM enzyme, 5 μM unlabeled tRNA plus 100 nM 32P-labeled tRNA. Time points were taken at 5 minutes, 20 minutes and 60 minutes by removing 2 μl aliquots from the reaction and immediately quenching the reaction into an ice-cold 3 μl quench solution [0.66 μg/μl nuclease P1 (Sigma) in 100 mM sodium citrate (pH 5.0)]. For each reaction, 2 μl of blank reaction mixture containing no enzymes was added to the quench solution as the start time point. The nuclease P1 mixture was then incubated at room temperature for 30 min and 1 μl aliquots were spotted on PEI-cellulose plates (Merck) and developed in running buffer containing 5% acetic acid and 100 mM ammonium acetate. Radioactive spots for AMP and AA-AMP (representing free tRNA and aminoacyl-tRNA, respectively) were separated and then visualized and quantified by phosphor imaging by a Molecular Dynamics Storm 860 phosphorimager (Amersham Biosciences). The ratio of aminoacylated tRNA to total tRNA was determined to monitor reaction progress.

Molecule	decrease in tRNA charging for pAzF compared with pAcF [fold]
B1	2.8

same assay, conditions: nsAA pAcF

Molecule	Km [µM]	kcat
B3	16 ± 4	1.12 ± 0.14 ×10^−3 s^−1
B1	18 ± 2	0.54 ± 0.15 ×10^−3 s^−1
B2	34 ± 6	0.25 ± 0.04 ×10^−3 s^−1

same assay, conditions: nsAA pAcF; relative to progenitor pAcFRS

Molecule	Fold change
B3	9.58
B1	4.10
B2	1

same assay, conditions: nsAA pAzF

Molecule	Km [µM]	kcat
B3	16 ± 1	0.63 ± 0.12 ×10^−3 s^−1
B1	24 ± 7	0.22 ± 0.05 ×10^−3 s^−1
B4	24 ± 3	0.49 ± 0.17 ×10^−3 s^−1
B5	14 ± 3	0.71 ± 0.13 ×10^−3 s^−1
B2	34 ± 7	0.23 ± 0.03 ×10^−3 s^−1

same assay, conditions: nsAA pAzF; relative to progenitor pAcFRS

Molecule	Fold change
B3	6.33
B1	1.47
B4	3.29
B5	8.17
B2	1
